Assay results as given in patent publication US20200207869A1 (INSERM INSTITUT NATIONAL DE LA SANTE ET DE LA RECHERCHE …, published 2020).

Columns and labels:
mD1-D2-HPC4 fragment = target: T1, mD1-D2-HPC4 fragment (murine, UniProt Q8CIZ8 23-762); assay: ELISA, sdAb immobilized
T1 construct: range 23-762
Protocol: (§1) Wells were then washed three times with 75 μl/well using TBS-T. Residual peroxidase activity was detected by measuring peroxidase-mediated hydrolysis of 3,3′,5,5′-tetramethylbenzidine.
(§2) Negative binding (−) was defined as optical density (OD) being ≤0.5, moderate positive binding (+) was defined as OD being >0.5 and <1.0, strongly positive binding (++) was defined as OD being ≥1.0.

[1] = target: T2, purified recombinant murine VWF (murine, UniProt Q8CIZ8 764-2813); assay: ELISA, sdAb immobilized
T2 construct: also called rmVWF
Protocol: as §1, §2

| OD (mD1-D2-HPC4 fragment) | OD [1] | Binder |
| --- | --- | --- |
| ≤ 0.5 od | – | sdAb KB-VWF-013 (VHH, Single-domain antibody against the VWF D'D3 domain; no tag stated) VHH: QVQLVQSGGGLVQAGDSLRLSCAASGRTFIRYAMAWFRQAPGKEREFVAAIPQSGGRSYYADSVKGRFTISRDNAKNTVYLQMNSLKPEDTAVYSCAATSTYYGRSAYSSHSGGYDYWGQGTQVTVSS |
| ≤ 0.5 od | ≤ 0.5 od | sdAb KB-VWF-011 (VHH, Single-domain antibody against the VWF D'D3 domain; no tag stated) VHH: QVQLVQSGGGLVQAGDSLRLSCAASGGTFSNYAMGWFRQTPGKEREFVARISRSGHRTDYADSAKGRFTISRDNAKNTVYLQMNSLKPEDTAVYYCAARSDWSIATTATSYDYWGQGTQVTVSS |
